Legend:
[1] = cycloheximide chase, Cl8 cells, densitometry; conditions: glycan lost; control: wild type dSmo
[2] = immunofluorescence, Hh-induced plasma membrane vs ER marker, Cl8; conditions: glycan lost; control: wild type dSmo
[3] = western blot of wing imaginal disc lysates; conditions: glycan lost; control: wild type dSmo transgene
[4] = western blot of Cl8 cell lysates; conditions: glycan lost; control: wild type dSmo

B1: Drosophila Smo (dSmo): dSmoNQ5 (protein)
parent chain: MQYLNFPRMPNIMMFLEVAILCLWVVADASASSAKFGSTTPASAQQSDVELEPINGTLNYRLYAKKGRDDKPWFDGLDSRHIQCVRRARCYPTSNATNTCFGSKLPYELSSLDLTDFHTEKELNDKLNDYYALKHVPKCWAAIQPFLCAVFKPKCEKINGEDMVYLPSYEMCRITMEPCRILYNTTFFPKFLRCNETLFPTKCTNGARGMKFNGTGQCLSPLVPTDTSASYYPGIEGCGVRCKDPLYTDDEHRQIHKLIGWAGSICLLSNLFVVSTFFIDWKNANKYPAVIVFYINLCFLIACVGWLLQFTSGSREDIVCRKDGTLRHSEPTAGENLSCIVIFVLVYYFLTAGMVWFVFLTYAWHWRAMGHVQDRIDKKGSYFHLVAWSLPLVLTITTMAFSEVDGNSIVGICFVGYINHSMRAGLLLGPLCGVILIGGYFITRGMVMLFGLKHFANDIKSTSASNKIHLIIMRMGVCALLTLVFILVAIACHVTEFRHADEWAQSFRQFIICKISSVFEEKSSCRIENRPSVGVLQLHLLCLFSSGIVMSTWCWTPSSIETWKRYIRKKCGKEVVEEVKMPKHKVIAQTWAKRKDFEDKGRLSITLYNTHTDPVGLNFDVNDLNSSETNDISSTWAAYLPQCVKRRMALTGAATGNSSSHGPRKNSLDSEISVSVRHVSVESRRNSVDSQVSVKIAEMKTKVASRSRGKHGGSSSNRRTQRRRDYIAAATGKSSRRRESSTSVESQVIALKKTTYPNASHKVGVFAHHSSKKQHNYTSSMKRRTANAGLDPSILNEFLQKNGDFIFPFLQNQDMSSSSEEDNSRASQKIQDLNVVVKQQEISEDDHDGIKIEELPNSKQVALENFLKNIKKSNESNSNRHSRNSARSQSKKSQKRHLKNPAADLDFRKDCVKYRSNDSLSCSSEELDVALDVGSLLNSSFSGISMGKPHSRNSKTSCDVGIQANPFELVPSYGEDELQQAMRLLNAASRQRTEAANEDFGGTELQGLLGHSHRHQREPTFMSESDKLKMLLLPSK
[1]
  degradation_or_half_life, half_life: increases, ~4 vs ~1
[2]
  localisation_or_trafficking: abolishes
[3]
  expression_or_secretion: no change
[4]
  expression_or_secretion: increases
